{"source": "patent US20080050387A1", "about": "“Non-Androgen Dependent Roles for Androgen Receptor and Non-Androgen Related Inhibitors of Androgen Receptor” (priority 2003, published 2008)", "key": {"AR (ARN, ARDBD, ARLBD)": {"system": "AR (ARN, ARDBD, ARLBD)", "assay": "GST pull-down assay ARA67 / AR", "type": "binding, human", "protocol": "GST-ARN, GST-ARA67 fusion proteins, and GST control protein were expressed in BL21 (DE3)pLysS bacteria strain (Stratagene) and purified with glutathione-Sepharose beads as instructed by the manufacturer (Amersham Pharmacia). In vitro [^35S]methionine-labeled AR, ARN, AR DBD, AR LBD and ARA67 proteins were generated using TNT-coupled Reticulocyte Lysate Systems (Promega). For in vitro interaction, mixtures of glutathione beads bound GST fusion proteins and 5 μl [^35S]methionine-labeled input proteins in 100 μl interaction buffer (20 mM Tris/pH8.0, 60 mM NaCl, 6 mM MgCl2, 1 mM EDTA, 0.05% Nonidet P-40, 1 mM DTT, 8% glycerol, 1 mM PMSF) were incubated in the presence or absence of 10 μM dihydrotestosterone (DHT) on a rotating disk at 4° C. for 2 h. After washing with NETN buffer (20 mM Tris/pH8.0, 100 mM NaCl, 6 mM MgCl2, 1 mM EDTA, 0.5% Nonidet P-40, 1 mM DTT, 8% glycerol, 1 mM PMSF) four times, the bound proteins were separated on 8-13% SDS-PAGE and visualized by autoradiography."}, "ARN": {"target": "T1, ARN (Homo sapiens, UniProt P10275)", "T1 construct": "The AR has a large N-terminus (ARN); expressed in transfected cells; host or cells: H1299", "T1 sequence (P10275 1-559 limits assumed)": "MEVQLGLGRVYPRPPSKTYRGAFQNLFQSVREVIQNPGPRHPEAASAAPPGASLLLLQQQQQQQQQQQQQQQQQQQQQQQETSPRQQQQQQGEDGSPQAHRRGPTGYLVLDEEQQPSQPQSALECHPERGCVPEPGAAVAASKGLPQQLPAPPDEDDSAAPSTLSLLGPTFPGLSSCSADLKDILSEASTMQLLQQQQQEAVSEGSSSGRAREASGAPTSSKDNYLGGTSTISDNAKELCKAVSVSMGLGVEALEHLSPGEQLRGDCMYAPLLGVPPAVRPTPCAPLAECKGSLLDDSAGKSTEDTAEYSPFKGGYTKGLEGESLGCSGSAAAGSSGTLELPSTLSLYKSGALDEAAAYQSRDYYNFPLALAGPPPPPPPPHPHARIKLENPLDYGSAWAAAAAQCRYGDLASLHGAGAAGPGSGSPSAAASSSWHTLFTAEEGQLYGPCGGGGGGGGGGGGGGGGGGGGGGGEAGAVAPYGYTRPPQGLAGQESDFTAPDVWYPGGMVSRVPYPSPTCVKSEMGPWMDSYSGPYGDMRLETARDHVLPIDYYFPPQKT", "T1 sequence (Q92624 1-585 partner)": "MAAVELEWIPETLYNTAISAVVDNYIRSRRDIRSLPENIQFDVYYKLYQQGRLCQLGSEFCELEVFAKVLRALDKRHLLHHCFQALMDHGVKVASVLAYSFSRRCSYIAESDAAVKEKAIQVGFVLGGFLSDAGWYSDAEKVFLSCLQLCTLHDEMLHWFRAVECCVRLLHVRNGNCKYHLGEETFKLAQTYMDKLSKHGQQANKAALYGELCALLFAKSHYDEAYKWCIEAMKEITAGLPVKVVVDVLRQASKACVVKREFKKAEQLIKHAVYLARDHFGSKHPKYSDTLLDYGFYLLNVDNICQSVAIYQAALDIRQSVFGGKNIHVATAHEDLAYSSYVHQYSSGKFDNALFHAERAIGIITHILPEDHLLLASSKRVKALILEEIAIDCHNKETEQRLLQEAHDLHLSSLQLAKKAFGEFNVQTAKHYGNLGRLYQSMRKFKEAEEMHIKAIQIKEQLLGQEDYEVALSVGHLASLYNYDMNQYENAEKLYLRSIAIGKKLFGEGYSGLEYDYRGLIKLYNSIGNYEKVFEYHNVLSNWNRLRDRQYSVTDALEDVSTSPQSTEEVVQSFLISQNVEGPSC", "assay": "Mammalian two-hybrid assay ARA67 / ARN in H1299 cells", "type": "cell-based", "conditions": "pM-ARA67 and pVP16-ARN, pG5-Luc", "protocol": "H1299 and COS-1 cells were maintained in Dulbecco's modified Eagle's medium (DMEM) (Life Technologies, Inc.) supplemented with 10% heat inactivated fetal bovine serum (FBS). LNCap cells were maintained in RPMI 1640 supplemented with […]. All media contain 100 units penicillin, 100 μg/ml streptomycin and 2 mM L-glutamine. Cells were seeded to a density of 50-60% confluency for transfection. In transfections where H1299 and COS-1 cells were used, the calcium phosphate precipitation method was used as described (Pan H J, et al. 1999. Endocrine 11:321-327) unless otherwise noted. […] In other reporter gene assays, where ligand treatment was required, cell culture media were changed to DMEM containing 10% charcoal-dextran-stripped FBS (CD-FBS) 2 h before transfection. After 16-18 h transfection, cells were treated with medium containing either vehicle or ligands for another 20-24 h and then cells were harvested. With LNCap cells transfection, the cells were treated with fresh RPMI 1640 containing 10% CD-FBS before transfection with SuperFect performed according to the manufacturer's protocol (Qiagen). After transfection, cells were allowed to recover in fresh RPMI 1640 containing 10% CD-FBS for 8-12 h, and then treated with either vehicle or ligands for another 20-24 h before harvesting. Each experiment was repeated at least three times."}, "AR": {"system": "AR", "sequence (P10275 with tags, fused parts or gaps DEL79-80/DUP473-473)": "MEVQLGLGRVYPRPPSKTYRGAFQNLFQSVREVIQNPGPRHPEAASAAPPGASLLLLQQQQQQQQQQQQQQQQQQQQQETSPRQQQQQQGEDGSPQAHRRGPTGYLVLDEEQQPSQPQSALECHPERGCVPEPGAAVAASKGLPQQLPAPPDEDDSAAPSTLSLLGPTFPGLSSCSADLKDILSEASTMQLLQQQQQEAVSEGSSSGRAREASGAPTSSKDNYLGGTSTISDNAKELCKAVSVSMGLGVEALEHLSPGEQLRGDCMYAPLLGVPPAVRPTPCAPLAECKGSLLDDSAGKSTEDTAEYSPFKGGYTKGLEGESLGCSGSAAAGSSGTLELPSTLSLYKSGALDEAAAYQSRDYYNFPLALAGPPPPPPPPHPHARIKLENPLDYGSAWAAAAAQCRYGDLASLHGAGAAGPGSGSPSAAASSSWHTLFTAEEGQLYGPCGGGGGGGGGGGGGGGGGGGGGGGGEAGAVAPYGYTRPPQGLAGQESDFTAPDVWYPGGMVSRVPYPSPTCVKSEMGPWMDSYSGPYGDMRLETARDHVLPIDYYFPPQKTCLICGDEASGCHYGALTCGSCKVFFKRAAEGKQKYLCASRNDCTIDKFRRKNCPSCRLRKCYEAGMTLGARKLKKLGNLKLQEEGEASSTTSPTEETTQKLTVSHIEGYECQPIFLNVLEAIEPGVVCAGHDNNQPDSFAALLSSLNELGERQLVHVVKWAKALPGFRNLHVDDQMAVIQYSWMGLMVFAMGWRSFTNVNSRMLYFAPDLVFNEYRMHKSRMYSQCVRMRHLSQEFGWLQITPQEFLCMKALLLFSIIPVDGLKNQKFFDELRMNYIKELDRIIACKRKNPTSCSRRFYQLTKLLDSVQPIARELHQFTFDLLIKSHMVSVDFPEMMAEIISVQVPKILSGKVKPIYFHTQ", "assay": "AR protein level in H1299 cells (Western blot)", "type": "cell-based, human", "conditions": "pSG5-AR and pKH3-ARA67 1 to 6", "protocol": "Protein samples collected from the cells were separated on 8% SDS-PAGE and transferred to nitrocellulose membranes. Membranes were blocked with 5% nonfat milk in TBST buffer (150 mM NaCl, 10 mM Tris/pH8.0, and 0.5% Tween-20) at room temperature for 1 h. Then the membranes were immunoblotted with primary antibodies for 2 h at room temperature or overnight at 4° C., followed by incubation with secondary antibodies for 1 h at room temperature. Blots were developed with the AP color developing reagents (Bio-Rad)."}}, "note": "Where two headings read alike, the source gives them in different places."}
{"molecule": "ARA67: AR N-terminal interacting protein of 585 amino acids (SEQ ID NO:1), matches PAT1; functions as a repressor of AR (protein) MAAVELEWIPETLYNTAISAVVDNYIRSRRDIRSLPENIQFDVYYKLYQQGRLCQLGSEFCELEVFAKVLRALDKRHLLHHCFQALMDHGVKVASVLAYSFSRRCSYIAESDAAVKEKAIQVGFVLGGFLSDAGWYSDAEKVFLSCLQLCTLHDEMLHWFRAVECCVRLLHVRNGNCKYHLGEETFKLAQTYMDKLSKHGQQANKAALYGELCALLFAKSHYDEAYKWCIEAMKEITAGLPVKVVVDVLRQASKACVVKREFKKAEQLIKHAVYLARDHFGSKHPKYSDTLLDYGFYLLNVDNICQSVAIYQAALDIRQSVFGGKNIHVATAHEDLAYSSYVHQYSSGKFDNALFHAERAIGIITHILPEDHLLLASSKRVKALILEEIAIDCHNKETEQRLLQEAHDLHLSSLQLAKKAFGEFNVQTAKHYGNLGRLYQSMRKFKEAEEMHIKAIQIKEQLLGQEDYEVALSVGHLASLYNYDMNQYENAEKLYLRSIAIGKKLFGEGYSGLEYDYRGLIKLYNSIGNYEKVFEYHNVLSNWNRLRDRQYSVTDALEDVSTSPQSTEEVVQSFLISQNVEGPSC", "values": [{"measurement": "interaction with AR LBD", "setting": "AR (ARN, ARDBD, ARLBD)", "result": "moderately"}, {"measurement": "interaction with ARDBD", "setting": "AR (ARN, ARDBD, ARLBD)", "result": "very weakly"}, {"measurement": "interaction with ARN", "setting": "AR (ARN, ARDBD, ARLBD)", "result": "most strongly"}, {"measurement": "interaction with GST-ARN fragment ARN1-140", "setting": "AR (ARN, ARDBD, ARLBD); [35S]methionine-labeled ARA67", "result": "positive interaction"}, {"measurement": "interaction with ARN", "setting": "AR (ARN, ARDBD, ARLBD); listed as full length ARA67", "result": "strong interaction"}, {"measurement": "interaction with AR, DHT dependence", "setting": "AR (ARN, ARDBD, ARLBD); presence and absence of 10 μM DHT", "result": "DHT independent manner"}, {"measurement": "reporter luciferase activity (association with ARN)", "setting": "ARN", "result": "highly induced"}, {"measurement": "AR protein level", "setting": "AR", "result": "slightly increased"}]}
